Blank lines part the entries; values can stand above or below the binder they belong to.
Columns and labels:
Assay in all cases: holdup assay
Set-up in all cases: key: below the threshold = too weak to quantify, mostly under pKd 3.1 to 4
NHERF4_4, Q86UT5 = target: NHERF4_4, Q86UT5
MAGI1_1, Q96QZ7 = target: MAGI1_1, Q96QZ7
LNX1_2, Q8TBB1 = target: LNX1_2, Q8TBB1
GIPC2, Q8TF65 = target: GIPC2, Q8TF65
TJP1_3, Q07157 = target: TJP1_3, Q07157
LNX1_1, Q8TBB1 = target: LNX1_1, Q8TBB1
DLG3_2, Q92796 = target: T1, DLG3_2, Q92796
T1 sequence (Q92796 221-321, limits assumed, looked up): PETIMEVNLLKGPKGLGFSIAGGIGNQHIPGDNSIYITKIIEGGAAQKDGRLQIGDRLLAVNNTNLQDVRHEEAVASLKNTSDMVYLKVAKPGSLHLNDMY

CASK, O14936 = target: CASK, O14936
SNTG1, Q9NSN8 = target: T2, SNTG1, Q9NSN8
T2 sequence (Q9NSN8 52-150, limits assumed, looked up): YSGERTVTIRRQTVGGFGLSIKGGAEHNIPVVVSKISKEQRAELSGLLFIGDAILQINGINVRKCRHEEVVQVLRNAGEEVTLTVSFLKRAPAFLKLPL

PTPN13_1, Q12923 = target: T3, PTPN13_1, Q12923
T3 sequence (Q12923 1088-1188, limits assumed, looked up): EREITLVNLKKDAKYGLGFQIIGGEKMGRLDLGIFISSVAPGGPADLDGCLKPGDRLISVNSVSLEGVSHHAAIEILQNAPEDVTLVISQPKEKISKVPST

TX1BP3, O14907 = target: T4, TX1BP3, O14907
T4 sequence (O14907 10-122, limits assumed, looked up): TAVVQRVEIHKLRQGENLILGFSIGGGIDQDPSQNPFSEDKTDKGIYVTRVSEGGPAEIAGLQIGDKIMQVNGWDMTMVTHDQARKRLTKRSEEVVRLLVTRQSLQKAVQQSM

Inadl_8, Q8NI35 = target: Inadl_8, Q8NI35
MAGI2_6, Q86UL8 = target: MAGI2_6, Q86UL8
MAGI2_4, Q86UL8 = target: MAGI2_4, Q86UL8
DLG3_3, Q92796 = target: T5, DLG3_3, Q92796
T5 sequence (Q92796 374-475, limits assumed, looked up): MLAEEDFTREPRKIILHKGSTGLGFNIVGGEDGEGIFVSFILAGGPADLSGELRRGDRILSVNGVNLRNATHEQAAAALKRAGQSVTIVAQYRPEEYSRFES

DLG3_1, Q92796 = target: T6, DLG3_1, Q92796
T6 sequence (Q92796 125-227, limits assumed, looked up): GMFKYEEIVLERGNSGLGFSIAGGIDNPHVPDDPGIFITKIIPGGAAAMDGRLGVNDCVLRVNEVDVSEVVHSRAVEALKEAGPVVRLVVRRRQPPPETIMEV

FRMPD2_3, Q68DX3 = target: FRMPD2_3, Q68DX3
LIN7B, Q9HAP6 = target: T7, LIN7B, Q9HAP6
T7 sequence (Q9HAP6 88-185, limits assumed, looked up): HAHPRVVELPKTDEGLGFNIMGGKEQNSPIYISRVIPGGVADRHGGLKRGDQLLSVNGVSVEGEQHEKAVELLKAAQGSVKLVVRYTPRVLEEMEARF

DLG4_2, P78352 = target: DLG4_2, P78352
Inadl_3, Q8NI35 = target: Inadl_3, Q8NI35
TJP3_3, O95049 = target: T8, TJP3_3, O95049
T8 sequence (O95049 375-456, limits assumed, looked up): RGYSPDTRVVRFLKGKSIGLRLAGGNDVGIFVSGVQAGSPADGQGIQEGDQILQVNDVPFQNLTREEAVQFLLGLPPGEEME

Inadl_9, Q8NI35 = target: Inadl_9, Q8NI35
GRIP1_2, Q9Y3R0 = target: T9, GRIP1_2, Q9Y3R0
T9 sequence (Q9Y3R0 145-248, limits assumed, looked up): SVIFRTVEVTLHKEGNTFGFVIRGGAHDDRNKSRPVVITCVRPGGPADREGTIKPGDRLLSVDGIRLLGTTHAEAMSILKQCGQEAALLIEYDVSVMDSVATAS

NHERF3_3, Q5T2W1 = target: T10, NHERF3_3, Q5T2W1
T10 sequence (Q5T2W1 238-333, limits assumed, looked up): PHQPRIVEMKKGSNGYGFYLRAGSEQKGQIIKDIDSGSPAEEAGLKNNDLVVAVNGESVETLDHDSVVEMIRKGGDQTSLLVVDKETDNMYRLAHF

APBA1_1, Q02410 = target: T11, APBA1_1, Q02410
T11 sequence (Q02410 651-752, limits assumed, looked up): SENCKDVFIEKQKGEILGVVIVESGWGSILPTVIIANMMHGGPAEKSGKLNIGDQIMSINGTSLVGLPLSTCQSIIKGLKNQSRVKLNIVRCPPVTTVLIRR

MPP2, Q14168 = target: T12, MPP2, Q14168
T12 sequence (Q14168 180-250, limits assumed, looked up): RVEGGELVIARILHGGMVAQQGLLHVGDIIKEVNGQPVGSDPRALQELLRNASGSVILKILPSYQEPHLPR

[1] = plain residues with an end cap or a label only (N-terminal biotin on a linker: gsgsgs; C-terminal amide)
[2] = plain residues with an end cap or a label only (N-terminal biotin on a linker: ttds)

Chain of Inadl_9, Q8NI35 (Q8NI35 1530-1615): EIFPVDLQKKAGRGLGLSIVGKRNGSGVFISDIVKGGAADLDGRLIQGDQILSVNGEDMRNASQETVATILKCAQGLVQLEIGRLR
Chain of LNX1_1, Q8TBB1 (Q8TBB1 261-371): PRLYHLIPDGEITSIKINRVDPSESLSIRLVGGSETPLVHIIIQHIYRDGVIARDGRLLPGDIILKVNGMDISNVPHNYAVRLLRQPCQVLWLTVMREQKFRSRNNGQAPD
Chain of TJP1_3, Q07157 (Q07157 416-512): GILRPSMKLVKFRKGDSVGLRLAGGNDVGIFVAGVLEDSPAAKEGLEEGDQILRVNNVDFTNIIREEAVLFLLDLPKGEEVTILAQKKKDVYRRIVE
Chain of LNX1_2, Q8TBB1 (Q8TBB1 371-470): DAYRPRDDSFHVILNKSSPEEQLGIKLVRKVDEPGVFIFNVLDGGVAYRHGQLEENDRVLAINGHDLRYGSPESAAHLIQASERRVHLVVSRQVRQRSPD
Chain of DLG4_2, P78352 (P78352 155-259): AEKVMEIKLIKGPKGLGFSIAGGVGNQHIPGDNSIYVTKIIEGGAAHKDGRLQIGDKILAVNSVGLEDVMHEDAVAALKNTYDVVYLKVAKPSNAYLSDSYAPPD
Chain of NHERF4_4, Q86UT5 (Q86UT5 464-550): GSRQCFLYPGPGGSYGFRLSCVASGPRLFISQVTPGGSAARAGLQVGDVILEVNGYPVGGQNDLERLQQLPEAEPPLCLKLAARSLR
Chain of CASK, O14936 (O14936 487-570): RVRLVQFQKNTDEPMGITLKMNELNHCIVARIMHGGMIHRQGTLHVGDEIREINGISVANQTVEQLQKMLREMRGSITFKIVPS
Chain of MAGI2_4, Q86UL8 (Q86UL8 772-865): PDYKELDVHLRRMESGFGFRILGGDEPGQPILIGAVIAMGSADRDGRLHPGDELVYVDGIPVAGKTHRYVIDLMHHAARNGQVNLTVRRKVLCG
Chain of FRMPD2_3, Q68DX3 (Q68DX3 1073-1166): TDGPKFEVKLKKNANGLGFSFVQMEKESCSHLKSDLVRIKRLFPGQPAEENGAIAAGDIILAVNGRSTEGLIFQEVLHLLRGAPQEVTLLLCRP
Chain of Inadl_8, Q8NI35 (Q8NI35 1425-1530): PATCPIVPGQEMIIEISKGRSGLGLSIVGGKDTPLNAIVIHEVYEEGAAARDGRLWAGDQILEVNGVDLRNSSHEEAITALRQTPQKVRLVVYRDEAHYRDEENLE
Chain of GIPC2, Q8TF65 (Q8TF65 112-203): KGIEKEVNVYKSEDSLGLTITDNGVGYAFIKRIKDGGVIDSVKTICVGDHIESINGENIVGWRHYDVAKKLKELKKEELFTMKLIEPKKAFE
Chain of MAGI2_6, Q86UL8 (Q86UL8 1141-1229): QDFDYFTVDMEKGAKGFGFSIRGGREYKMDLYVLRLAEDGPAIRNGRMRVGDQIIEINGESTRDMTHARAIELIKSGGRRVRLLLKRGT
Chain of MAGI1_1, Q96QZ7 (Q96QZ7 1-106): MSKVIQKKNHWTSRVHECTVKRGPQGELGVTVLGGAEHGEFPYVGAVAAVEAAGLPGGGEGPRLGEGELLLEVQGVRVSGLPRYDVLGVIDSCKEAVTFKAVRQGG
Chain of Inadl_3, Q8NI35 (Q8NI35 359-469): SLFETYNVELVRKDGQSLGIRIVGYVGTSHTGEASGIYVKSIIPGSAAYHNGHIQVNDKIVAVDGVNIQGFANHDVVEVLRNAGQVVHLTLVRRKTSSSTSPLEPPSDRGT

pKd (NHERF4_4, Q86UT5; [1]): 3.84 | pKd (MAGI1_1, Q96QZ7; [1]): below the threshold | pKd (LNX1_2, Q8TBB1; [1]): below the threshold | pKd (GIPC2, Q8TF65; [1]): below the threshold | pKd (TJP1_3, Q07157; [1]): below the threshold | pKd (LNX1_1, Q8TBB1; [1]): below the threshold | pKd (DLG3_2, Q92796; [1]): 4.21 | pKd (CASK, O14936; [1]): below the threshold | pKd (SNTG1, Q9NSN8; [1]): below the threshold | pKd (PTPN13_1, Q12923; [1]): below the threshold | pKd (TX1BP3, O14907; [1]): 3.83 | pKd (Inadl_8, Q8NI35; [1]): below the threshold | pKd (MAGI2_6, Q86UL8; [1]): below the threshold | pKd (MAGI2_4, Q86UL8; [1]): below the threshold | pKd (DLG3_3, Q92796; [1]): below the threshold | pKd (DLG3_1, Q92796; [1]): below the threshold | pKd (FRMPD2_3, Q68DX3; [1]): below the threshold | pKd (LIN7B, Q9HAP6; [1]): 3.58 | pKd (DLG4_2, P78352; [1]): below the threshold | pKd (Inadl_3, Q8NI35; [1]): below the threshold | pKd (TJP3_3, O95049; [1]): below the threshold | pKd (Inadl_9, Q8NI35; [1]): below the threshold | pKd (GRIP1_2, Q9Y3R0; [1]): below the threshold | pKd (NHERF3_3, Q5T2W1; [1]): below the threshold | pKd (APBA1_1, Q02410; [1]): below the threshold | pKd (MPP2, Q14168; [1]): below the threshold
Binder: YGIVQETTFDLGGDIH [MLLT4_int, P55196]

pKd (NHERF4_4, Q86UT5; [2]): below the threshold | pKd (MAGI1_1, Q96QZ7; [2]): below the threshold | pKd (LNX1_2, Q8TBB1; [2]): below the threshold | pKd (GIPC2, Q8TF65; [2]): below the threshold | pKd (TJP1_3, Q07157; [2]): below the threshold | pKd (LNX1_1, Q8TBB1; [2]): below the threshold | pKd (DLG3_2, Q92796; [2]): below the threshold | pKd (CASK, O14936; [2]): below the threshold | pKd (SNTG1, Q9NSN8; [2]): 3.65 | pKd (PTPN13_1, Q12923; [2]): below the threshold | pKd (TX1BP3, O14907; [2]): 4.13 | pKd (Inadl_8, Q8NI35; [2]): below the threshold | pKd (MAGI2_6, Q86UL8; [2]): 3.69 | pKd (MAGI2_4, Q86UL8; [2]): below the threshold | pKd (DLG3_3, Q92796; [2]): below the threshold | pKd (DLG3_1, Q92796; [2]): below the threshold | pKd (FRMPD2_3, Q68DX3; [2]): below the threshold | pKd (LIN7B, Q9HAP6; [2]): 3.54 | pKd (DLG4_2, P78352; [2]): 3.33 | pKd (Inadl_3, Q8NI35; [2]): below the threshold | pKd (TJP3_3, O95049; [2]): below the threshold | pKd (Inadl_9, Q8NI35; [2]): below the threshold | pKd (GRIP1_2, Q9Y3R0; [2]): below the threshold | pKd (NHERF3_3, Q5T2W1; [2]): below the threshold | pKd (APBA1_1, Q02410; [2]): below the threshold | pKd (MPP2, Q14168; [2]): below the threshold
Binder: VDFPPKESSL [ACVR2A, P27037]

From paper PMC9482650, “Quantitative fragmentomics allow affinity mapping of interactomes” (Nature Communications, 2022)
